T1: A462S (Homo sapiens, UniProt P78325)
T1 construct: expressed on HEK293 cells; also called human ADAM8 point mutant A462S
T1 sequence (ADAM8, looked up): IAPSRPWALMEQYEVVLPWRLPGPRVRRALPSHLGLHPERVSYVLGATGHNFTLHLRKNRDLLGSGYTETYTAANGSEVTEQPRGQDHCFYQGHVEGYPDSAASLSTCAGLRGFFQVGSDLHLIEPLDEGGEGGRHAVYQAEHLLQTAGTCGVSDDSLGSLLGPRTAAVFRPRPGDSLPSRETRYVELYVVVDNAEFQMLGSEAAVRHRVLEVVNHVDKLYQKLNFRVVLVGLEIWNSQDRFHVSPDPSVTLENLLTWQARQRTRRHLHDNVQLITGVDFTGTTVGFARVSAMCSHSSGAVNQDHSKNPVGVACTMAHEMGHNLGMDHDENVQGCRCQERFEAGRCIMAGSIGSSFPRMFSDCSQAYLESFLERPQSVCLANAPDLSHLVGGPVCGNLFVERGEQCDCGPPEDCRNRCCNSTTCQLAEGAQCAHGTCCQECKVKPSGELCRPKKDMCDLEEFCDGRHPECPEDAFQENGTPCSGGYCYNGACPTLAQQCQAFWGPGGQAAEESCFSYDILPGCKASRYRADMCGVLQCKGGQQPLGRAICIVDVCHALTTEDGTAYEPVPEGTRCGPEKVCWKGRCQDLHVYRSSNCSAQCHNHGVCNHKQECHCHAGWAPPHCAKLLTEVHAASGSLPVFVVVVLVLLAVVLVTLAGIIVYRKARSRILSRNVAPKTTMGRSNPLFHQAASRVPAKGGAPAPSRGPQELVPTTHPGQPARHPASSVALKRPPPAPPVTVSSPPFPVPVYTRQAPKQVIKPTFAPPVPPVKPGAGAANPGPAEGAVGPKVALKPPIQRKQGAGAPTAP

T2: G445A (Homo sapiens, UniProt P78325)
T2 construct: expressed on HEK293 cells; also called human ADAM8 point mutant G445A
T2 sequence (ADAM8, looked up): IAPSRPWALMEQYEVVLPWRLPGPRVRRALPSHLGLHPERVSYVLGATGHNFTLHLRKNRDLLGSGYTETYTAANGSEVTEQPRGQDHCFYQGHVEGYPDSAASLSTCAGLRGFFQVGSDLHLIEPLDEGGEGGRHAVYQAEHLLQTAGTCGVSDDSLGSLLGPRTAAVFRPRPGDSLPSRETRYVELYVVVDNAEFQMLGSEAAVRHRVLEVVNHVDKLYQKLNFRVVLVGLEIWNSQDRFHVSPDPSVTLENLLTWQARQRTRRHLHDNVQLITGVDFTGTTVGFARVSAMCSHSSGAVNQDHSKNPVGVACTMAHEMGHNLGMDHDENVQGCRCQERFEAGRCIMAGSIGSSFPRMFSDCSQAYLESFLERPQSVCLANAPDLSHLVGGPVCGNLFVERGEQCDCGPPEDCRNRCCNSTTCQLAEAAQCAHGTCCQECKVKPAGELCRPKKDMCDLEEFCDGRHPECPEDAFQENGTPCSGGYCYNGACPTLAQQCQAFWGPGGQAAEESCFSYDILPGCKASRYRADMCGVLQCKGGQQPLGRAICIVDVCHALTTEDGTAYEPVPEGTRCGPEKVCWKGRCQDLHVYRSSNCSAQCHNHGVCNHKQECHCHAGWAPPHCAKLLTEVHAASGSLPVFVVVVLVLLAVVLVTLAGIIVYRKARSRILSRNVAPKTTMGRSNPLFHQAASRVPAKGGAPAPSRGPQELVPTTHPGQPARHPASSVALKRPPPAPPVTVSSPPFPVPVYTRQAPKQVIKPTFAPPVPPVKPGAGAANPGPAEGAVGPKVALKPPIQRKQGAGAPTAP


How the values were obtained:
A462S = target: T1, A462S; assay: high-throughput flow cytometry, HEK293 cells with mutant ADAM8, high stringency; range in parentheses; dotted box
Protocol: (§1) A variety of experimental parameters were optimized for high-throughput flow cytometry including blocking buffer, and primary and secondary antibody concentrations, to identify the optimal conditions for screening. Through these studies ADP2 and ADP13 were determined to be high affinity binding antibodies.
(§2) Thus, for these studies antigen-binding fragments (Fabs) of ADP2 and ADP13, which bind with lower affinity than the full antibody, were generated. In addition, higher binding stringency conditions were tested, such as increased pH, salinity, and temperature, and/or increased washing, to weaken binding sufficiently to allow identification of critical binding residues in flow cytometry. The final experimental flow cytometry conditions were: primary antibody incubation with ADP2 Fab (0.50 μg/ml), ADP13 Fab (5.00 μg/ml) and Control Ab (0.16 μg/ml) for 60 minutes in flow cytometry buffer containing 10% goat serum in PBS (Ca²⁺ and Mg²⁺ free). […] Samples were washed three times after primary antibody incubation and twice after secondary antibody incubation with PBS (Ca²⁺ and Mg′ free). Next, HEK293 cells expressing WT or mutated ADAM8 proteins or EV DNA were incubated with ADP2 or ADP13 Fabs or Control Ab at their optimal concentrations. Fab binding was detected using Alexa Fluor 488-conjugated secondary antibodies and mean cellular fluorescence determined using the Intellicyt iQue flow cytometry platform. […] This counter-screen strategy facilitates the exclusion of mutants that are locally misfolded or that have an expression defect. Binding of each test Fab to each mutant clone in the alanine scanning library was determined, in duplicate, by high-throughput flow cytometry.

G445A = target: T2, G445A; assay: as above
Protocol: as §1, §2

Binding Reactivity (% WT) (A462S)	Binding Reactivity (% WT) (G445A)	Binder
24.7	–	ADP13 Fab (Fab, V domains shown) VH: EVQLQQSGPEMVKPGTSVKISCKASGYTFTDYYINWVKQSHGKSLEWIGDISPNIGGATYNPKFKGKAILTVDKSARTAYMELRSLTSEDSAVYCCTRGGSSYPYFYAMDYWGQGTSVTVSS VL: DIVMSQSPSSLAVSVGEKVTMSCKSSQSLLYSSNQKKYLAWYQQKPGQSPKLLIYWASTRESGVPDRFTGSGSGTDFTLTISSVKAEDLAVYYCQQFYSYPYTFGGGTKLEINR
–	30.7	ADP2 Fab (Fab, V domains shown) VH: EVKLVESGGGLVQPGGSLSLSCAASGFSFPDYYMSWVRQPPGKALEWLGFIRDSANGYTTEYIASVKGRFTFSRDNSQSILYLQMNALRAEDSATYYCARYSRYYGMDYWGQGTSVTVSS VL: SIVMTQTPKILLVSAGDRVTITCKASQTVNYDVAWYQQKPGQSPKPVIYFASNRYTGVPDRFTGSGFGTDFTFTISTVQAEDLAVYFCQQDYSAPWTFGGGTKLEIK
